Laboratory results published in US20200369765A1 (INNATE PHARMA, published 2020).
Each block holds one binder with its values, some of them ahead of it.

Key:
Human Siglec-9 [1] = molecular target: T1, Human Siglec-9 (human, UniProt Q9Y336 18-463); assay: flow cytometry, CHO Siglec-9 cells, mean n = 2
T1 construct: On transfected CHO cells; also on YTS and KHYG-1 transfectants, primary NK cells and moDC; also called huSiglec-9; CD329
Description: Binding of humanized antibodies was tested on CHO cells transfected with human Siglec-9, in a titration experiment by flow cytometry. Cells were incubated 90 minutes at 37° C. in Staining Buffer (SB) with primary antibodies at 10 ug/ml and a series of dilution of 1:10. They were washed three times with SB, then incubated 30 minutes with a goat F(ab′)² Anti-human IgG (Fc) PE. EC₅₀ values (μg/ml) for Siglec-9 expressing cells are shown below.
Target sequence in this assay (Q9Y336 18-463): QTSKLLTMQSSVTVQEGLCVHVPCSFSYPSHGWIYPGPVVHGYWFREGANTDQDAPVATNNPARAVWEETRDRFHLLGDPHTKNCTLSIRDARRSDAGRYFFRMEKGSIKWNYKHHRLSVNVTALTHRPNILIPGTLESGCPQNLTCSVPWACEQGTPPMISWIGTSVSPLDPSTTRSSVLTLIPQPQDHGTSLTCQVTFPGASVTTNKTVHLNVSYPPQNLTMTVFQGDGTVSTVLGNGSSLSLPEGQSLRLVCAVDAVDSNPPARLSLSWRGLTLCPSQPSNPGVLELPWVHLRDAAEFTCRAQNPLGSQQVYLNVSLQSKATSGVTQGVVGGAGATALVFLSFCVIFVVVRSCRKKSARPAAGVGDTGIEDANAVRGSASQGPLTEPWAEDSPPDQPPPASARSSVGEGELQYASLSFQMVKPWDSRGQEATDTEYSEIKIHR

Human Siglec-9 [2] = molecular target: T1, Human Siglec-9; assay: flow cytometry titration on untreated monocyte-derived dendritic cells (moDCs), goat F(ab')2 anti-human IgG (Fc) PE; table under the left panel
Description: Binding on moDCs and neuraminidase treated moDCs was tested in a titration experiment by flow cytometry. Cells were incubated 1h in Staining Buffer (SB) with primary antibodies at 10 ug/ml and a series of dilution of 1:10. They were washed two times with SB, then incubated 30 min with a Goat F(ab′)² Anti-Human IgG (Fc) PE (Jackson ImmunoResearch), and washed twice with SB.

[3] = molecular target: T2, Human Siglec-9 mutant M16 (human, UniProt Q9Y336 18-463); assay: flow cytometry, HEK293T transfectants; '-' indicates full loss of binding
T2 construct: Expressed on HEK293T cells; also called Mutant 16
T2 sequence (Q9Y336 other isoform, or with tags, fused parts or gaps mutant): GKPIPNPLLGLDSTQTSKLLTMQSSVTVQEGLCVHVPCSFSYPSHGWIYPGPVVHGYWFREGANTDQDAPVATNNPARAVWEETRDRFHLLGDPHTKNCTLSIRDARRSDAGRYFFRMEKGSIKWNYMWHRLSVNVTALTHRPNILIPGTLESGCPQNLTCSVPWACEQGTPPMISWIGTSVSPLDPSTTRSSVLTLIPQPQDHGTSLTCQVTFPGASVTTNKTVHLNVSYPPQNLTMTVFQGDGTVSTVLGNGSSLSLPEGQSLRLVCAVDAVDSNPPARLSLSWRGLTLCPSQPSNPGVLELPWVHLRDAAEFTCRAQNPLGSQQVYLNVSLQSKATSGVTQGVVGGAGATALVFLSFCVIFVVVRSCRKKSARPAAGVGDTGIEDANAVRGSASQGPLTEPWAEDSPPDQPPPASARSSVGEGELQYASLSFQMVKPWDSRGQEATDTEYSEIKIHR

Siglec-7 Fc protein [4] = molecular target: T3, Siglec-7 Fc protein (human); assay: ELISA, blocking: Siglec-7 Fc captured on protein A, mAb dilution series, then biotinylated polymer Sia2, streptavidin-peroxidase (top panel); partial inhibition
T3 construct: Produced in CHO cells; also called human Siglec-7 Fc
T3 sequence (chain, as listed by the source limits assumed): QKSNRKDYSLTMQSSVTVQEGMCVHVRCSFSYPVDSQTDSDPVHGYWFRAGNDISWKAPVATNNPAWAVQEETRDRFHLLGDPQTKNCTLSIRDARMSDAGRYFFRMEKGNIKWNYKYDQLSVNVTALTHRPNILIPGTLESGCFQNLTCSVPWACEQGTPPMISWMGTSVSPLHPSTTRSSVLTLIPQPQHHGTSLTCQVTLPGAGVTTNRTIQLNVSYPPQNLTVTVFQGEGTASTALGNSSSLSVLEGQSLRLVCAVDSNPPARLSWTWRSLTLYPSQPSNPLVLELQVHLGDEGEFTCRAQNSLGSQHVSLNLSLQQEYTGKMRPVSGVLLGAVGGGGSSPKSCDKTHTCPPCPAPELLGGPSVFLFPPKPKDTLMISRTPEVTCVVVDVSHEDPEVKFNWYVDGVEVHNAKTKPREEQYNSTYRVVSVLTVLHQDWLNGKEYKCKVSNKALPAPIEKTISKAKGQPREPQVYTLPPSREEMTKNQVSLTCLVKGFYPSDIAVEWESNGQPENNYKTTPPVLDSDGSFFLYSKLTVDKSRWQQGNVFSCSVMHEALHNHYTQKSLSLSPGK
Description: (§1) Blocking of the interaction between Siglec-7 and -9 and sialylated ligands by anti Siglec-7/9 antibodies was tested on ELISA assays. Siglec proteins were Siglec-7 human Fc and Siglec-9 Human Fc recombinant proteins, and ligands were biotinylated polymers with sialylated trisaccharides (Neu5Aca2-3Galb1-4GcNAcb-PAA-biotin Glycotech #01-077 referred to as “Sia1” and 6′-Sialyllactose-PAA-biotin Glycotech #01-039 (referred to as “Sia2”). Briefly, Protein A was coated on ELISA plates over night at 4° C. After 3 washes and saturation, Siglec-7 Fc and Siglec-9 Fc were added at 0.8 μg/well at RT for 1H30. After 3 washes, mAbs were added at 20 ug/ml and a series of dilution of 1:5. After 3 washes, biotinylated sialylated polymers were added for 3 hours at room temperature. After 3 washes, Streptavidin-Peroxidase (Beckman) was added at 1:1000. […] The absorbance was read at 450 nm.

Human Siglec-9 mutant M6 = molecular target: T4, Human Siglec-9 mutant M6 (human, UniProt Q9Y336 18-463); assay: flow cytometry, HEK293T transfectants; '-' indicates full loss of binding
T4 construct: Expressed on HEK293T cells; also called Mutant 6
T4 sequence (Q9Y336 other isoform, or with tags, fused parts or gaps mutant): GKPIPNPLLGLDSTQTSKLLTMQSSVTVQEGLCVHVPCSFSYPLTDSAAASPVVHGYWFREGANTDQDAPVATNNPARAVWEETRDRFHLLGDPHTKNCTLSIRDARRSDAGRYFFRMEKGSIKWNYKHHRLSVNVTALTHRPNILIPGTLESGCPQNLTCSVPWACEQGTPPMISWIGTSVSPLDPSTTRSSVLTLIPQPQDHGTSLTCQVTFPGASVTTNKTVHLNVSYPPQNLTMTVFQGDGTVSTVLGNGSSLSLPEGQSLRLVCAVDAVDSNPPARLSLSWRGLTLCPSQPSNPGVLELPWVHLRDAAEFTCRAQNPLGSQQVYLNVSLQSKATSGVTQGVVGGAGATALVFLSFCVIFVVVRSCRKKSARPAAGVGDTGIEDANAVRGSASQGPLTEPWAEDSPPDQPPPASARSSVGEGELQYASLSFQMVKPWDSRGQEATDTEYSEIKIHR

Human Siglec-9 mutant M8 = molecular target: T5, Human Siglec-9 mutant M8 (human, UniProt Q9Y336 18-463); assay: as above
T5 construct: Expressed on HEK293T cells; also called Mutant 8
T5 sequence (Q9Y336 other isoform, or with tags, fused parts or gaps mutant): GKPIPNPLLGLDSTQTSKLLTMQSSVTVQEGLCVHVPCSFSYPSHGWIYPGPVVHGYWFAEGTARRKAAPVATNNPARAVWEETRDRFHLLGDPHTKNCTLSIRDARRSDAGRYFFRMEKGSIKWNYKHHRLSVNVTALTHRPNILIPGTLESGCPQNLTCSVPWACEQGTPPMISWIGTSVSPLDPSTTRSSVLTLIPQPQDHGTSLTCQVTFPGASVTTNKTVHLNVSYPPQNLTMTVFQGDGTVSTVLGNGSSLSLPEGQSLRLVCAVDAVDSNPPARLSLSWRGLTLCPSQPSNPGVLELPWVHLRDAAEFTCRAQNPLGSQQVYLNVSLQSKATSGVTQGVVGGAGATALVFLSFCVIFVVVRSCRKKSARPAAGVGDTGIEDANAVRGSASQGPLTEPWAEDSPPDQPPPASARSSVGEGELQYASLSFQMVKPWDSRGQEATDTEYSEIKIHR

Siglec-7 Fc protein [5] = molecular target: T3, Siglec-7 Fc protein; assay: ELISA, blocking: Siglec-7 Fc captured on protein A, mAb dilution series, then biotinylated polymer Sia2 (6'-Sialyllactose-PAA-biotin), streptavidin-peroxidase (top panel)
Description: as §1

Siglec-9 Fc protein [6] = molecular target: T6, Siglec-9 Fc protein (human); assay: ELISA, blocking: Siglec-9 Fc captured on protein A, mAb dilution series, then biotinylated polymer Sia1, streptavidin-peroxidase (top panel); weak partial inhibition
T6 construct: Produced in CHO cells; also called human Siglec-9 Fc
T6 sequence (chain, as listed by the source limits assumed): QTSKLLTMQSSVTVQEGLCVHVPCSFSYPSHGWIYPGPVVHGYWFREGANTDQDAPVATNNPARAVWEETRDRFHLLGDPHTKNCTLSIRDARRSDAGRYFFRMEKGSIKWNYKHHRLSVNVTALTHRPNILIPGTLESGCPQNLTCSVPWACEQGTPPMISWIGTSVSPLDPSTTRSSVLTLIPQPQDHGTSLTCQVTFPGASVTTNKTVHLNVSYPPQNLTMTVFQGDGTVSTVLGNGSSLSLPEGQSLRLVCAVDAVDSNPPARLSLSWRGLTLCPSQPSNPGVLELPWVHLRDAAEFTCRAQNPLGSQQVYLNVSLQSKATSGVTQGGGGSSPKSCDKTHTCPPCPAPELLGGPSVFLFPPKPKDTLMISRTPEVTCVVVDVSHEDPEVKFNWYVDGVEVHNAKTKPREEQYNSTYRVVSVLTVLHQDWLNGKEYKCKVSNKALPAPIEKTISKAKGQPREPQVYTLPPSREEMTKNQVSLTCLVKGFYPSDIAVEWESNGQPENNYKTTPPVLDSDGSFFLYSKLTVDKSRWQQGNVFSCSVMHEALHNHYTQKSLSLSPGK
Description: as §1

Siglec-7 Fc protein [7] = molecular target: T3, Siglec-7 Fc protein; assay: ELISA, blocking: Siglec-7 Fc captured on protein A, mAb dilution series, then biotinylated polymer Sia2, streptavidin-peroxidase (bottom panel); partial inhibition
Description: as §1

Siglec-9 Fc protein [8] = molecular target: T6, Siglec-9 Fc protein; assay: ELISA, blocking: Siglec-9 Fc captured on protein A, mAb dilution series, then biotinylated polymer Sia2, streptavidin-peroxidase (bottom panel)
Description: as §1

- EC50 (Human Siglec-9 [1]): 0.03 µg/mL
- EC50 (Human Siglec-9 [2]): 0.232 µg/mL
- binding result [3]: no binding
B1: mAbA (antibody, human IgG1, V domains shown)
VH: QVQLQQPGAELVKPGSPVKLSCKASYFTFTSYWMHWVRQRPGQGLEWIGEINPSNGHTNYNEKFESKATLTVDRSSSTAYMQLSSLTSEDSAVFYCANGVESYDFDDALDYWGQGTSVTVSS
VL: DIQMTQTTSSLSASLGDRVTISCRASQDINNYLNWYQQKPDGTIKLLIYYTSRLHSGVPSRFSGSGSGTDYSLTINNLEQEDIATYFCQQGNTLPFTFGGGTKLEIK

- binding result [3]: no binding
B2: mAbB (antibody, human IgG1, V domains shown)
VH: QVQLQQPGAELVKPGASVKLSCKASVYTFTSYWMHWVKQRPGQGLEWIGEINPSNGHTNYNEKFKTKAKLTVDKSSSTAYMQLSSLTSEDSAVYFCANGVETYDFDDAMDYWGQGTSVTVSS
VL: DIQMTQTTSSLSASLGDRVTISCRASQDINNYLNWYQQKPDGTVKLLIYFTSRLHSGVPSRFSGSGSGTDYSLTISNLEQEDIATYFCQQGDTFPFTFGGGTKLEIK

- IC50 (read off the curve) (Siglec-7 Fc protein [4]): ~2 µg/mL
B3: mAb4 (antibody, human IgG1, V domains shown)
VH: DVQLVESGGDLVKPGGSLKLSCAASGFAFSSYDMSWVRQSPEKRLEWIAHIGSGGGNIYYPDTVKGRFTISRDNAKNTLYLQMRSLKSEDTAMYYCARLIFTTGFYGMDYWGQGTSVTVSS
VL: DIQMTQTTSSLSASLGDRVTISCRASQDISSYLNWYQQKPDGTIKLLIYYTSRLHSGVPSRFSGSGSGTDYSLTISNLDQDDIATYFCQQGNALPWTFGGGTKLEIK

- EC50 (Human Siglec-9 [2]): 0.196 µg/mL
- binding result (Human Siglec-9 mutant M8): no binding
B5: mAbC (antibody, human IgG1, V domains shown)
VH: QIQLVQSGPELKKPGETVKISCKASGYTFTNYEMNWVKEAPGKGLKWMGWINTYTGESTYADDFKGRFAFSLETSASTVYLQINNLKDEDVATYFCVRDDYGRSYGFAYWGQGTLVTVSA
VL: NIVLTQSPASLTVSLGQRANISCRASESVDSYGNSFMHWYQQKPGQPPKLLIYLASKLESGVPARFSGSGSRTDFTLTIDPVETDDAATYYCHQNNEDPPWTFGGGTKLEIK

- binding result (Siglec-7 Fc protein [5]): binds
B7: mAb6 (antibody, human IgG1, V domains shown)
VH: EIQLQQSGPELEKPGASVKISCKASGYSFSDYNMNWVKQSNGKSLEWIGNIDPYYGATSYNQRFKGKATLTVDKSSSTAYMQLKSLTSEDSAVYYCARGDSLFAYWGQGTLVTVSA
VL: DIVMTQSQEFMSTSLGDRVSVTCKASQNVGTNVAWYQQKPGQSPKALLYSASSRYSGVPDRFTGSGSGTDFTLTINNMQSEDLAEYFCQQYITYPYTFGGGTKLEIK

Continued, binder first:

B4: mAbD (antibody, human IgG1, V domains shown)
VH: QIQLVQSGPELKKPGETVKISCKASGYTFTDYSMHWVKQAPGKGLKWMGWIITETGEPTYADDFRGRFAFSLETSANTAYLQINNLKNEDTATYFCARDFDGYWGQGTTLTVSS
VL: DILMTQSPASLSASVGETVTITCRASENIYSYLAWYQQKRGKSPQFLVYNAKTLTEGVPSRFRGSGSGTQFSLKINSLQPEDFGTYYCQHHYGFPWTFGGGTKLEIK
- EC50 (Human Siglec-9 [1]): 0.036 µg/mL
- EC50 (Human Siglec-9 [2]): 2.47 µg/mL
- binding result (Human Siglec-9 mutant M6): no binding

B6: mAb5 (antibody, human IgG1, V domains shown)
VH: EIQLQQSGPELEKPGASVKISCKASGYSFSDYNMNWVKQSNGKSLEWIGNIDPYYGATSYNQRFKGKATLTVDKSSSTAYMQLKSLTSEDSAVYYCARGDSLFAYWGHGTLVTVSA
VL: DIVMTQSQEFMSTSLGDRVSVTCKASQNVGTNVAWYQQKPGQSPKALLYSASSRYSGVPDRFTGSGSGTDFTLTISNVQSEDLAEYFCQQYITYPYTFGGGTKLEIK
- IC50 (read off the curve) (Siglec-7 Fc protein [4]): ~1 µg/mL

B8: mAb1 (antibody, human IgG1, V domains shown)
VH: DVQLQESGPGLVKPSQSLSLTCTVTGYSITGGFAWNWIRQFPGNTLEWMGYIGYGGSTSYNPSLNSRISITRDTSKNHFFLQFNSVTTDDSATYYCARGDYLFAYWGQGTLVTVSA
VL: DIVMTQSHKFMSTSVGDRVSITCKASQDVNTAVAWYQQKPGQSPKLLIYSASYRYTGVPDRFTGSGSGTDFTFTISSVQAEDLAVYYCQQHYSTPRTFGGGTKLEIK
- IC50 (read off the curve) (Siglec-9 Fc protein [6]): ~2 µg/mL
- IC50 (read off the curve) (Siglec-7 Fc protein [7]): ~4 µg/mL
- IC50 (read off the curve) (Siglec-7 Fc protein [4]): ~3 µg/mL
- IC50 (read off the curve) (Siglec-9 Fc protein [8]): ~1 µg/mL

B9: mAb2 (antibody, human IgG1, V domains shown)
VH: EVQLQESGPGLVKPSQSLSLTCTVTGYSITGGFAWNWIRQFPGNTLEWMGYIGYGGSTSYNPSLNSRISITRDTSKNHFFLQFNSVTTEDSATYYCARGDYLFAYWGQGTLVTVSA
VL: DIVMTQSHKFMSTSVGDRVSITCKASQDVNTAVAWYQQKPGQSPKLLIYSASYRYTGVPDRFTGSGSGTDFTFTISSVQAEDLAVYYCQQHYSTPRTFGGGTKLEIK
- IC50 (read off the curve) (Siglec-9 Fc protein [6]): ~2 µg/mL
- IC50 (read off the curve) (Siglec-7 Fc protein [7]): ~4 µg/mL
- IC50 (read off the curve) (Siglec-9 Fc protein [8]): ~1 µg/mL
